Measurements: patent US20030180744A1 (published 2003)

Tests used:
[1] = target: T1, hKGF receptor present in the PC-3 plasma membrane extracts (UniProt P21802-3 22-822, limits assumed); experiment: gel shift competition: unlabeled hKGF against 125I-hKGF with PC-3 plasma membrane extract
T1 construct: A crude detergent extract, not a purified protein; Two complexes (C1, C2) were seen; also called component found in the PC-3 membrane extracts
Protocol: (§1) For electrophoretic mobility shift gels, about 3×10⁷ PC-3 cells were gently spun and washed with PBS and then lysed by mixing with equal volume of lysis buffer containing 40 mM Hepes, pH 7.4, 150 mM NaCl, 20% glycerol, 2% triton X-100, 0.1% sodium azide, 3 mM MgCl₂, 3 mM EGTA, 2 μM aprotinin, 2 μM leupeptin, 2 mM PMSF, and 400 μM sodium orthovanadate. Following 15 min incubation on ice the extract was spun at 11,000 g at 4° C. for 30 min to remove debris and nuclei and the supernatant was aliquoted and stored at −70° C. […] Following a 10 min incubation at room temperature, 6× loading dye was added to achieve 1× concentration, and the samples were loaded onto a 5% or 10% native TBE polyacrylamide gel. The gel was prerun at room temperature at 100 Volts. Following loading, the gel was run at 200 Volts for 5 min and then at 100 Volts for 30-60 min at room temperature. The radioactive bands were then visualized by autoradiography.

[2] = target: T1, hKGF receptor present in the PC-3 …; experiment: native gel electrophoretic mobility shift of 125I-hKGF by PC-3 plasma membrane extract
Protocol: as §1

T1 sequence (P21802 other isoform, or with tags, fused parts or gaps limits assumed): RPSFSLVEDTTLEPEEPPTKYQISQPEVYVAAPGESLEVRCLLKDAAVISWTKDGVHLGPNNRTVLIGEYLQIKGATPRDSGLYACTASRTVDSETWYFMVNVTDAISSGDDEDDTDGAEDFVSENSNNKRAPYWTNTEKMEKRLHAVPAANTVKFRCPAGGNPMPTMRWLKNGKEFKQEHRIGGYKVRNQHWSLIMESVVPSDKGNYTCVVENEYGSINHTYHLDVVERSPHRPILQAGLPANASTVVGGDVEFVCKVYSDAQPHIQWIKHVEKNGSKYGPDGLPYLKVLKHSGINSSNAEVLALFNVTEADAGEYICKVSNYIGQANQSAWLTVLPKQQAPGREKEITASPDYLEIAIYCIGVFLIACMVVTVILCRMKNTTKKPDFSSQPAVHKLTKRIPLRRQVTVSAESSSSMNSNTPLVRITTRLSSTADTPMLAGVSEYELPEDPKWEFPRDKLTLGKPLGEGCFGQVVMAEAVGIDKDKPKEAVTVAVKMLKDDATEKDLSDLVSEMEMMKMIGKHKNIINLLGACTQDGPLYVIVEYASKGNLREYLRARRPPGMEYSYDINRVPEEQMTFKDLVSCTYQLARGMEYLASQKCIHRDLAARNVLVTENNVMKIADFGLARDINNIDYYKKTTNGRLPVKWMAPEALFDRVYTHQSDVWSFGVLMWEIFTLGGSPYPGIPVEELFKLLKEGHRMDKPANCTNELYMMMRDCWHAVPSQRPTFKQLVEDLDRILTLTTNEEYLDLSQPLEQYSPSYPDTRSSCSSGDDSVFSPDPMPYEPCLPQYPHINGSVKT

IC50 [1]: 70 nM | Kd [2]: ~8 nM
B1: Recombinant human Keratinocyte Growth Factor (hKGF) (ligand, UniProt P21781 32-194, looked up)
chain: CNDMTPEQMATNVNCSSPERHTRSYDYMEGGDIRVRRLFCRTQWYLRIDKRGKVKGTQEMKNNYNIMEIRTVAVGIVAIKGVESEFYLAMNKEGKLYAKKECNEDCNFKELILENHYNTYASAKWTHNGGEMFVALNQKGIPVRGKKTKKEQKTAHFLPMAIT
notes: also called FGF-7
